Experimental data as given in patent US20240317834A1, “COMPOSITIONS AND METHODS FOR NEUROLOGICAL DISEASES” (CODA BIOTHERAPEUTICS, INC., priority 2020, published 2024).

Tested on: Lenti-X 293T cells
Experiment: YFP fluorescence quenching anion reporter plate reader assay of engineered receptors stimulated with acetylcholine or a non-native ligand
Format: cell-based
From the text: To screen these mutant LGICs for those having novel response profiles to ligands, an anion reporter assay was developed to assess the function of the LGICs in a high throughput format. In this assay, cells expressing a YFP reporter whose fluorescence is quenched in the presence of anion are transfected with DNA encoding the channel of interest. Upon exposure to ligand, channels that are activated will flux anion, resulting in a dose-dependent quench of the YFP that can be detected on a plate reader. The greater the quench signal (i.e., the more positive the value), the higher the ligand activity on the receptor is.
Lenti-X 293T cells (LX293T, Clontech) were maintained in DMEM containing 10% FBS and 1% penicillin/streptomycin (Invitrogen). […] Two days before assay, cells were split at a density of 20,000 cells/well in a 96-well tissue culture plate coated with poly-d lysine (Thermo Scientific). The next day, the cells were transiently transfected with 0.1 μg of DNA per well using standard Fugene protocol (Promega). On the day of assay, cells were washed 2 times in 1× extracellular solution (1×ECS: 140 mM NaCl, 5 mM KCl, 1 mM MgCl2, 2 mM CaCl2), 10 mM HEPES, 10 mM glucose, pH 7.2, mOsms 300). After the last wash, 100 μL of 1×ECS was added to the wells and the plate was incubated at 37° C. for 30 min. While incubating the plate, the drugs were diluted to a 2× concentration in 1×ECS-NaI (same components as 1×ECS except the 140 mM NaCl was replaced by 140 mM NaI). The plates were then read on a Flexstation3 (Molecular Devices). Each well, 8 wells at a time, of the plate is read for 2 min using a Flexstation3 (Molecular Devices) as follows: 1) a baseline YFP fluorescence is read for 17 sec, 2) 100 μL of ligand is added, and 3) the changes in YFP fluorescence are then measured every 1.3 sec for 1 minute and 43 seconds. The percent quench is calculated from the average fluorescence of the last 10 seconds of the read divided by the baseline average of the first 15 seconds prior to the ligand addition.
FIGS. 1A-1J provide heat maps of the percent quench of YFP fluorescence following stimulation by various doses of either acetylcholine or the non-native ligand as indicated in the Figures. CODA71 (SEQ ID NO: 33) was used as a control, and CODA75 (SEQ ID NO: 29, a non-responding chimeric engineered receptor) was used as the negative control. Quenching of the fluorescence signal, as indicated by blue shaded cells, indicate the level of engineered receptor activation by the non-native ligand at that concentration.

B1: CODA238: engineered chimeric LGIC receptor, R101W in SEQ ID NO: 33 (protein)
chain: MRCSPGGVWLALAASLLHVSLQGEFQRKLYKELVKNYNPLERPVANDSQPLTVYFSLSLLQIMDVDEKNQVLTTNIWLQMSWTDHYLQWNVSEYPGVKTVWFPDGQIWKPDILLYNSADERFDATFHTNVLVNSSGHCQYLPPGIFKSSCPMDLKNFPMDVQTCKLKFGSWSYGGWSLDLQMQEADISGYIPNGEWDLVGIPGKRSERFYECCKEPYPDVTFTVTMRRRMGYYLIQMYIPSLLIVILSWISFWINMDAAPARVGLGITTVLTMTTQSSGSRASLPKVSYVKAIDIWMAVCLLFVFSALLEYAAVNFVSRQHKELLRFRRKRRHHKSPMLNLFQEDEAGEGRFNFSAYGMGPACLQAKDGISVKGANNSNTTNPPPAPSKSPEEMRKLFIQRAKKIDKISRIGFPMAFLIFNMFYWIIYKIVRREDVHNQ
modifications: synthetic sequence of chimeric LGIC
YFP fluorescence quenching using CNL001 (1 nM CNL001, first column): 32.42%
YFP fluorescence quenching using CNL001 (1 nM CNL001, second column): 54.768%
YFP fluorescence quenching using TC-5619/Bradanicline (3 nM brd): 74.7%
YFP fluorescence quenching using Varenicline (3 nM var, first column): 17.896
YFP fluorescence quenching using Varenicline (3 nM var, second column): 12.564
YFP fluorescence quenching using CNL001 (10 nM CNL001, first column): 75.149%
YFP fluorescence quenching using CNL001 (10 nM CNL001, second column): 75.339%
YFP fluorescence quenching using TC-5619/Bradanicline (30 nM brd): 76.78%
YFP fluorescence quenching using Facinicline (30 nM fac): −19.61
YFP fluorescence quenching using Varenicline (30 nM var, first column): 16.263
YFP fluorescence quenching using Varenicline (30 nM var, second column): 22.117
YFP fluorescence quenching using CNL001 (50 nM CNL001, first column): 75.881%
YFP fluorescence quenching using CNL001 (50 nM CNL001, second column): 77.844%
YFP fluorescence quenching using ABT-126 (50 nM abt): −14.97%
YFP fluorescence quenching using CNL001 (100 nM CNL001, first column): 78%
YFP fluorescence quenching using CNL001 (100 nM CNL001, second column): 78.575%
YFP fluorescence quenching using CNL002 (100 nM CNL002): 2.95%
YFP fluorescence quenching using ABT-126 (100 nM abt): −14.66%
YFP fluorescence quenching using AZD-0328 (100 nM azd0328): 22.94%
YFP fluorescence quenching using ABT-126 (300 nM abt): −16.35%
YFP fluorescence quenching using AZD-0328 (300 nM azd0328): 75.38%
YFP fluorescence quenching using TC-5619/Bradanicline (300 nM brd): 77.01%
YFP fluorescence quenching using Facinicline (300 nM fac): 76.54
YFP fluorescence quenching using Varenicline (300 nM var, first column): 77.492
YFP fluorescence quenching using Varenicline (300 nM var, second column): 79.056
YFP fluorescence quenching using Varenicline (500 nM var, first column): 80.186
YFP fluorescence quenching using Varenicline (500 nM var, second column): 80.065
YFP fluorescence quenching using CNL001 (1 uM CNL001, first column): 81.126%
YFP fluorescence quenching using CNL001 (1 uM CNL001, second column): 79.482%
YFP fluorescence quenching using CNL002 (1 uM CNL002): 67.93%
YFP fluorescence quenching using ABT-126 (1 uM abt): 50.02%
YFP fluorescence quenching using TC-6987 (1 uM tc6987): 72.47
YFP fluorescence quenching using Varenicline (1 uM var, first column): 81.263
YFP fluorescence quenching using Varenicline (1 uM var, second column): 80.702
YFP fluorescence quenching using TC-6987 (10 uM tc6987): 72.04
YFP fluorescence quenching using CNL002 (30 uM CNL002): 73.02%
YFP fluorescence quenching using AZD-0328 (30 uM azd0328): 81.8%
YFP fluorescence quenching using Facinicline (30 uM fac): 87.94
YFP fluorescence quenching using TC-6987 (500 uM tc6987): 76.56
percent quench of YFP fluorescence, 10 uM ach (acetylcholine 10 uM): −16.58%
percent quench of YFP fluorescence, 100 uM ach (acetylcholine 100 uM): 75.18%
percent quench of YFP fluorescence, 1 mM ach (acetylcholine 1 mM): 78.99%
percent quench of YFP fluorescence, 3 mM ach (acetylcholine 3 mM): 75.74%
